Reference: US20240197828A1 (FEINSTEIN INSTITUTES FOR MEDICAL RESEARCH, published 2024)
Where a chain is given by its changes, count along the chain named.

T1: recombinant murine MFG-E8 (rmMFG-E8) (mouse, UniProt P21956 23-463)
T1 construct: For SPR it was bought from R&D Systems (Cat #2767-MF-050); For the cell assays it was made in the lab; also called milk fat globule-epidermal growth factor-factor VIII; AlexaFluor568-rmMFG-E8
T1 sequence: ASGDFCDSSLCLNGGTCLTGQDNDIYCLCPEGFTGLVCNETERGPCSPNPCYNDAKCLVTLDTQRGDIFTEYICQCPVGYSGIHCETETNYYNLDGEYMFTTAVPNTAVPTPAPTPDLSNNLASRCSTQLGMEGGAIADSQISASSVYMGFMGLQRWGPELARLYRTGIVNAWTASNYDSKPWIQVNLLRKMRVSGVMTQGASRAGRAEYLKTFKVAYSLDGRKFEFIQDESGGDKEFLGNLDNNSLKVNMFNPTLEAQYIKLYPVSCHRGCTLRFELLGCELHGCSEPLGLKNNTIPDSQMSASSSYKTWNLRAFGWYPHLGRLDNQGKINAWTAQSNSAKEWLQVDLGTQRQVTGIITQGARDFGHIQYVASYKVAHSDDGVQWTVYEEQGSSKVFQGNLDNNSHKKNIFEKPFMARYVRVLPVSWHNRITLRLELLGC

T2: recombinant human MFG-E8 (rhMFG-E8) (human, UniProt Q08431 24-387, limits assumed)
T2 sequence (looked up): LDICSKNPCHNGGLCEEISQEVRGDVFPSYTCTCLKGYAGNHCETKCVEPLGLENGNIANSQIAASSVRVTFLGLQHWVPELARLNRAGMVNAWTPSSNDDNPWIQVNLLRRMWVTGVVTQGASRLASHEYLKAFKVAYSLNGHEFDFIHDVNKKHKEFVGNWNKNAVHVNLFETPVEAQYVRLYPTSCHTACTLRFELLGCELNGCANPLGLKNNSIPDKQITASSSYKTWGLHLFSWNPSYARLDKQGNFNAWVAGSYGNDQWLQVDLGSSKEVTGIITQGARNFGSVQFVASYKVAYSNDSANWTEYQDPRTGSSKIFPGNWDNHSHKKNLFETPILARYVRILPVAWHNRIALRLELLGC

B1: recombinant murine (rm) CIRP (ligand, mouse, UniProt P60824 1-172, looked up)
chain: MASDEGKLFVGGLSFDTNEQALEQVFSKYGQISEVVVVKDRETQRSRGFGFVTFENIDDAKDAMMAMNGKSVDGRQIRVDQAGKSSDNRSRGYRGGSAGGRGFFRGGRSRGRGFSRGGGDRGYGGGRFESRSGGYGGSRDYYASRSQGGSYGYRSSGGSYRDSYDSYATHNE
notes: For SPR it was bought (Cat # CSB-EP613483He0); For the cell assays it was made in the lab and, in the uptake experiments, labelled with FITC; also called eCIRP
B2: recombinant human CIRP (rhCIRP) (ligand, UniProt Q14011 1-172, looked up)
chain: B1 chain with A21S, S109G, G126N, A143S, G148S, S150G, G152S, Y153D
notes: The source of rhCIRP is not described in the methods
B3: MFG-E8-derived oligopeptide 3 (MOP3) (peptide)
peptide: RGDSSSYKTWNLRAFGWY
notes: Synthetic 18-residue chimeric peptide: RGD followed by 15 residues of the mouse MFG-E8 discoidin domain 2

What was measured:
[1] = target: T1, recombinant murine MFG-E8 (rmMFG-E8); assay: SPR (Biacore/OpenSPR); rmCIRP immobilised, rmMFG-E8 as analyte at 15.7-250 nM; 1:1 fit; mouse proteins
Method: (§1) To examine the direct interaction between rmCIRP and rmMFG-E8, surface plasmon resonance (SPR), OpenSPR (Nicoya), was performed between rmCIRP and rmMFG-E8. rmCIRP was immobilized on carboxyl sensor and rmMFG-E8 was injected as an analyte in concentrations of 15.7 nM to 250 nM. Binding reactions were performed in DPBS, with Calcium and Magnesium, 0.05% P20, 1% BSA, and pH 7.4. In parallel experiments, binding of MOP3 to rmCIRP (analyte) was performed with concentrations of 0.5 μm to 2 μM, and binding of MOP3 to αᵥβ₃-integrin (analyte) was performed in concentrations of 31.25 nM to 125 nM. All binding reactions were performed in PBS 0.05% P20, pH7.4. Briefly, the carboxyl sensor was first cleaned by injection 10 mM HCL 150 μl, followed by injection of 150 μl of the mixture of 1 aliquot of N-ethyl-N′-[3-[…]]-carbodiimide (EDC) and 1 aliquot of N-hydroxysuccinimide (NHS) to activate the sensor surface. An aliquot of 200 μl of 50 μg/ml of the ligand diluted in 10 mM sodium acetate (pH 5.5) was injected at 20 μl/minutes into flow cell-channel-2 of the sensor for immobilization. Next, 150 μl of 1 M […] (pH 8.5) was injected to deactivate the remaining active sites on channel 1&2. […] To evaluate binding, the analyte was injected into flow cell-1 and flow cell-2 and increasing concentrations and real-time interaction data were analyzed by TraceDrawer (Nicoya). […]

[2] = target: T2, recombinant human MFG-E8 (rhMFG-E8); assay: SPR (Biacore); human proteins
[3] = target: T3, αvβ3-integrin (recombinant, R&D Systems Cat #7889-AV-050); assay: SPR (Biacore/OpenSPR); αvβ3-integrin as analyte at 31.25-125 nM; 1:1 fit
T3 construct: Used as the analyte in SPR over immobilised MOP3; also called αvβ3-integrin receptor; auß3-integrin
T3 sequence (P43406 31-988, chain 1 of 2): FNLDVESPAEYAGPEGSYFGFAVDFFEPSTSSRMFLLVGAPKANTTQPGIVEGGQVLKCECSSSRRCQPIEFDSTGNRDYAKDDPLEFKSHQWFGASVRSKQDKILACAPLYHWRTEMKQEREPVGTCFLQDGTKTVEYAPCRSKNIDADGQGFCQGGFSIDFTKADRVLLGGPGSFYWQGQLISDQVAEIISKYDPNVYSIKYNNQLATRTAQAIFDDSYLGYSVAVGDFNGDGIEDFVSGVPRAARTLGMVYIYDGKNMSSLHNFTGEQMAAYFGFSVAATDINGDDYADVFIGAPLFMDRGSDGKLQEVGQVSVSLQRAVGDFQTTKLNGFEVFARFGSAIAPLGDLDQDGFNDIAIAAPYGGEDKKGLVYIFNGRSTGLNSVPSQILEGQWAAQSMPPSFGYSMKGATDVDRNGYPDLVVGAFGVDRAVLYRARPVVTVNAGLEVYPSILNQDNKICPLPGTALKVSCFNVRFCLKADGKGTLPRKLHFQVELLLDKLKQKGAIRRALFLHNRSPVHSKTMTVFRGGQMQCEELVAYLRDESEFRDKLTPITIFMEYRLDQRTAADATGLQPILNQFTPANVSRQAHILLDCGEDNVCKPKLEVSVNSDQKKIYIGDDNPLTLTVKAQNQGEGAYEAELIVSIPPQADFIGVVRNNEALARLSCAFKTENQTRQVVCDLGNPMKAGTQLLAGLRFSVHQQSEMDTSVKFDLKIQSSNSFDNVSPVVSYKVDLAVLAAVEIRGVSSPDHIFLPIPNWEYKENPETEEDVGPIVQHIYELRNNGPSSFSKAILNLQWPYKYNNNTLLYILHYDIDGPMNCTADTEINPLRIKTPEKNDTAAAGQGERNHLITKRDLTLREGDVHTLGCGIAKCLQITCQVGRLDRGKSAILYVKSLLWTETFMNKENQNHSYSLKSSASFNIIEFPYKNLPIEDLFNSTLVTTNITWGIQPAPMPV
T3 sequence (O54890 26-717, chain 2 of 2, further chain): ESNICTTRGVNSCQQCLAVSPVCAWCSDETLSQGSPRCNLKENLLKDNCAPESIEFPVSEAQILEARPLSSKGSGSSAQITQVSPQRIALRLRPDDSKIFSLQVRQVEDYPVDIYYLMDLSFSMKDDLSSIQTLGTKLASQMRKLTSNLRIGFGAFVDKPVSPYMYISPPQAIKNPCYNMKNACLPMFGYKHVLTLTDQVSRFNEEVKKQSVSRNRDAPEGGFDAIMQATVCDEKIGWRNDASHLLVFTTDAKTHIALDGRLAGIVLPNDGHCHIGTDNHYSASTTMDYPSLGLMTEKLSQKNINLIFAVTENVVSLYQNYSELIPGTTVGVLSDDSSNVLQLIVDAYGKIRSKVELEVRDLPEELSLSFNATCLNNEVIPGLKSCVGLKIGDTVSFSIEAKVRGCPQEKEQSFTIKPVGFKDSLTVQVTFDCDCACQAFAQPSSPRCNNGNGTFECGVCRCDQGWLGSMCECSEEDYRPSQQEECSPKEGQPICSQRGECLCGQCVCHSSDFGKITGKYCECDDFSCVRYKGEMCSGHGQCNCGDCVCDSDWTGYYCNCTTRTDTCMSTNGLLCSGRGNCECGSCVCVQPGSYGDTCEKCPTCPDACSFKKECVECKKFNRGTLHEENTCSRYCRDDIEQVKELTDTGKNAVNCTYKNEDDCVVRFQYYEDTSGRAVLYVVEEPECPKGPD
Method: as §1

[4] = target: B1; assay: SPR (Example 1); Example 1; paragraph 73 gives a separate value of 3.1×10^-7 M
[5] = target: B1; assay: SPR (Biacore/OpenSPR); rmCIRP as analyte at 0.5-2 µM; 1:1 fit; Example 2, Biacore
Method: as §1

Binder: B1
Kd [1]: 200 nM

Binder: B2
Kd [2]: 29 nM

Binder: B3
Kd [3]: 776 nM | Kd [4]: 13 nM | Kd [5]: 310 nM
